The text below walks through data of publication PMC6786869.

The target of test [1] is Als1p with the V326N mutation, V5-tagged, displayed on the surface of S. cerevisiae cells (Candida albicans) (UniProt Q5A8T4). In words: single-cell force spectroscopy (AFM); one live yeast cell on a polydopamine-coated tipless cantilever brought repeatedly into contact with another cell on a hydrophobic substrate; PBS, 20 C; 500 adhesion-rupture trials per cell pair.
Test [2] concerns the target Wild-type Als1p (Candida albicans cell adhesion protein Als1p), V5-tagged, displayed on the surface of S. cerevisiae cells (Candida albicans) (UniProt Q5A8T4). The test is described as above.

For the substance “Als1p with the V326N mutation, V5-tagged, displayed on the surface of S. cerevisiae cells (from UniProt Q5A8T4 18-1238) (natural protein)”, in test [1], the % of cell pairs binding amounted to 7%, the mean maximum rupture force per pair came out at 667 pN and the mean rupture force amounted to 517 pN.
Take “Wild-type Als1p (Candida albicans cell adhesion protein Als1p), V5-tagged, displayed on the surface of S. cerevisiae cells (from UniProt Q5A8T4 18-1238) (natural protein)”: in test [1], the % of cell pairs binding came to 33%, the mean maximum rupture force per pair was 953 pN and the mean rupture force amounted to 483 pN. Further, in test [2], the % of cell pairs binding worked out at 97%, the mean maximum rupture force per pair worked out at 3330 pN and the mean rupture force amounted to 1510 pN.
